assay: soluble on expression in E. coli; label from the status in PepcDB or PDB records

| Sequence | soluble on expression in E. coli |
| --- | --- |
| MENFHFEHRGPRRDRFARERTGRPEGPHRHGHRRGRFGPEGDPGFGPGMHFGRGRGRGGRGRRGDVRSAILLLLTEEPMHGYELIQQIVERSDGVWKPSPGSIYPALSQLEDEGLVLIEKVAGRKTARLTDEGEAFVEANKTELGTPWDDVRESVGRPAEDLRGLIGLLMGAAGQVAAVGDDEQVRRAGEILTEARRAMYRLLAEDDQSEAGKDDTDS | not soluble |
| TPVSEKQLAEVVANTVTPLMKAQSVPGMAVAVIYQGKPHYYTFGKADIAANKPVTPQTLFELGSISKTFTGVLGGDAIARGEISLDDPVTRYWPQLTGKQWQGIRMLDLATYTAGGLPLQVPDEVTDNASLLRFYQNWQPQWKPGTTRLYANASIGLFGALAVKPSGMPYEQAMTTRVLKPLKLDHTWINVPKAEEAHYAWGYRDGKAVRAVRVSPGMLDAQAYGVKTNVQDMANWVMANMAPENVADASLKQGIALAQSRYWRIGSMYQGLGWEMLNWPVEANTVVEGSDSKVALAPLPVAEVNPPAPPVKASWVHKTGSTGGFGSYVAFIPEKQIGIVMLANTSYPNPARVEAAYHILEALQ | soluble |
| MAHHHHHHMAAACGCRSLLSRDMPRRFPMCVASGTMCRRLCDCRMEGEERRELRERRCQESRWASCRRAHCPPSPAPPCRAPSITPQHRSRRHQHTARQRMPPPSRVRPEGTRPLLRSEESHRVAQRRAQNLLADSAHDTGQWTLSVCVVEDTAVESLLSSGWTVG | not soluble |
| MAHHHHHHMLHEPVSTANGHMPRRSSLGCRLRSSPFLSCVAYVNTLTCDSLMHALRATVSQRIATGVDVECHRLTSGAAVVSTPTQVHISITSANFVRQRSSRPALLPLLTHPPPPSPSLHPVMSRSRQQQAAEVTLHHFFKTERVIRLECERREAKARLKLIDIMSGDLDDQLLCVAQFKKEWLQSRRVLEEARQAVVQEEGSKRAYVEEEYVRTINTMSRHYHPLSSRVV | not soluble |
| MGSDKIHHHHHHAGLDAVEIGTGGNPGNHHCPTDELLASEAARKEYLEKFTSRGLTISAFSCHDNPISPNKEEAAASDEILRKSIKLASLMNVPVVNTFSGTAGDSDDAKAPNWPVIPWPTVYSDIKTWQWETKLIPYWKEIGELAAASGVKIGIELHGGFLCHTPYTILKLREETNDAIGVNLDPSHLWWQGIDPVGAIKILGKAGAIHHFHAKDTYLDQDNINMYGLTDMQPYGDVQTRSWTFRSVGCGHSLTEWSDIMSALRTYGYDYVVSIEHEDPLMSIDEGFDRAVTNLQSILIKDKPLDMWWA | not soluble |
| MLTTLAISNYRTLREIVLPLGRLNVVTGANGSGKSNLYKALRLLAQTAQGGVVNALALEGGLDSCFWAGPENLTKGMLAGDTPIEATVRQAPKRLKLGFAGEDFSYLIELGLPKPDSTTLFGLDPQIKREAIWNGAKYRPASVLVERRGPMVKSRSQDGQGWITLSAHLQSSDSIFTELADPERSPEVLKLRDSIRAWRFYDHFRTDTDAPARRPQLGTATPVLHHDGRDLPSAIQTIFEIGDKSAFDHAVSDAFPGAKVRITPQAGGILQLEFQQQGLLRPLYASELSDGTLRYLLLIAALLTPRPPELMVLNEPETSLHPDLLPALARLIAKASEVCQLWVVSHANRLINALNQFEECNTLALDKTLGQTQILGQDLLNTPSWLWQNRLEHHHHHH | soluble |
| MAHHHHHHMARSLQDPRLSFYCEQYDHIAHRMNHYVLQFYFEDRTVEIREVTKNRLHLKRAHFPHLNRDDFKVGSSLSLLGGVIKLTAYADEVTRELCGERGEVTAVMFGEQLLPQLGRCLAVLTEECGFVALEMQMAWLPVETAAAYGVPPDLVEGRIVVVKCANTNALQRGIDFMARMPGARAAESVEEVGRWEQIVEKAKEQPVAILGDPNSTVVIIKPHALQKLAGGVIVQQLIDAGLEISGISLTNMTSQQANELLKPYKGVLPDFPDTMRSLMGTVWVLQFVSLDEGVDVVSVAREVCGPFDPVIAKELRPTSIRARFGVDRAHNAVHCCDLHEEGPLYSNFFFRPEDVDE | not soluble |
| YSFIGNPVFKKPFELDEMREYYLNFFERRGHGRIERYPVVARWRTDIYLTIASIADFQPFVTSGVAPPPANPLTISQPCIRLDDLDSVGRTGRHLTLFEMMAHHAFNYPGKEIYWKNETVAYCTELLNELGVKKEDIVYKEEPWAGGGNAGPCLEAIVGGLEVATLVFMNLEEHPEGDIEIKGARYRKMDNYIVDTGYGLERFVWASKGTPTVYDAIFPEVVDTIIDNSNVSFNREDERVRRI | not soluble |
| HLEGLGASVLDFTGFAQKFGTVLSYIRLGAKPDTLHQVRIDTGGADAVIGCDMVVSSAPKASAHYRNGTKVVLNRAEMPTGDLVLHRDAQLKIDTREAAIRAVVGTENVSGFDANQTAEQLLGDAVFANVMMLGYAWQQGLVPVSRSALAQAILLNGVAVEKNRLAFAAGRALAADPARLDVESASPE | not soluble |
| PVLATQWNNYQQSRAAEAYSQLEKGVPPEVLNKAWEEAQQYNANLGDIDPGDAWTSSDDESSSAYQRYLNYLSALNETEAMGRIVLPSIKSDLPIFHGTSDRVLARGVGHLYGTDLPVGAPGELGEDGVIPPAPPEGRLS | not soluble |
| MGSDKIHHHHHHMRYVIVGSGPAGLNAIEAIREVDKEGEILLITAEKYVGYSRPLITYLLGRKVTEEKMYYRTEDYLREMRVDIKPATRVEKVIPEEKTVVTDSGEEIRYDKLLIATGGKPFVPNIEGLTGKKGVFTFTTWEDEEKVEKYIEENDVKEAVVLGGGLIGLKTTEALMELGVKVTIVELADRILSVTFDRKASEIITEALKKEGCSVITNDTVVKVNGDDTVSSVVLKSGKEIPTKLLVIAIGVKPNVEFLKDSGIEINRGIVVNEKMETNVEGVYAAGDCTEFYDLIDGQRKTIAIWPVAVAQGRVAGYNMAGKNVRYPGGIPMNSVELAGIPTISVGHSNVEDGGYEILTFEEGNTYKKMVLKDNRLVGAILVNDIDRAGIYTGLILQKLDVSSFKDRLLDENFGLVYLPKEFRKKMLEGEIKIWLE | not soluble |
| MNESIYTTPQSSKTPKSKSARYSSPYQVIDLNNESQEDLKTRLLEAENIIQDLRSERDALHESLVDKAGLNESVIIERSNKVSTQETRIYRRDVTLLEDDLKQKESQIRILQNRCLRLETEKQKMQDTISGYQEDLKENEIRIENLNSRLHKLEDELSAKTHEIFSIGEELKNKTMKLNEKNSQFQTKLAEISSENRNLERKVQKFREELIVKDQRSLEVHQDQENTQKVLKEVKQLSDRLDYLTPKRKDVSRIKERDDFLQFSAKIIEETMSELKLKNARLERELSEKEELVKVTKEELQELQKTVTQAMGDSEQATKYLHAENMKLTRQKADIRCDLLEARRNLKGFDEKREELEKQRDEALEDVRRITELKKNVEIELRSLKLLAEEREEQIDELKSRVAGYEVLRRDHEAVKNELAKAEEKLNKMGAHLVMADKQSSHFKTLKETAEGSRRRAIEQCNEMVARIRGLEASLENQRKVEQELEMVKAENVRQAKKIEFMKEEIQETHLDYREELSKLAKGGGSHEADSQRDSELRSAKKTIQEVKADNKKLQQILEEVRQNQSKVLEENVKLRKGMAEAIEKIEEFKRNWHSSREAGERLQLEAKENEEKVLKVEEELQEKRLEVLEKEELVNYLQSQINTKQTKQPKLSRRSTLMSTISEVDTSTYVREVEEVRALEEQREELQAYLAEKRKMADLQKSRSTANTTTLITSTTATEVSKSACELSYPPATMRHDIPHKWLEFRHYSVLSMKCSLCFVGITFFTKANKCSHCDVRVHASCAPRVNNTCGIPAQCATYYQDAQAVGGIGRMNGWLRVYRDDLPESTWTSLWAMMDSNHVKFYRDAGADNLENPYFTIDLNKEQWILRTGQEVAIPGDVMRNVLTIKLQTRSVHIVAPTPKSAERWAACLQNAQTRRMMKNSKPSSIAEYSCLLTLSLPNNLKIFKAHTIEDWILFATQTGLFFTSISQPRNPTRIAGPSSVTSLEVMSEINCVAMITNSNRQLALIPLDSLTLAMQSTHPSIRAEVLPEFGHVHTIRYHQQDGQRFLLVSDDTQLHIRKYNSTRDVFAHFAKLVVPEPVSFIESTPAGFIFASDTFYYVPLDHQSPSDVSARKLMPPRRSDYPVSAHAITANEILLAYQNHGIFVNLYGEQSRNQIIEWEKMPIEFAYTSPLLYIVHDDSIEIVQISKSSKETVLAEREVIACVNAHIVQSDGVLISVSSKDITEVHRFSATCRGTGTKRRGISPFNTLKRSKN | not soluble |
| MVLLLIVNKYWKVNDMKNEIQKNMDKYNPWHEDDFESYEDIARDVSLTTDKTFIEHYLLEVYSEENGHFDQENVHAMIEEIKNAI | not soluble |
| MSLKPIIPEDERSKEPLDTDRVIYHPDMIRANEWVLNEYEAPYRELCIFVPCAKRKPYHESPSHKKFDRIIFGIAKPEDVHIVTFGTCGITPRELDTQYPFMHYSFMMGKCNVAKIKRDFIKMESERLAAYLEKTRDNYKHRIAYCIGDFRTAMEKAVEMVDVEVDIVPRESTIQKMIQPDKPFIYNSLSSREYLQDFSDAITDALKLPKRKVGLKEDLSVDDADWYLLEGHHHHHH | soluble |
| MDSIERKKTKPYNINEKEILDIVAAKGSYLSSISENLEEVPPHKESSSRAESKKTITDEEVKKYIEALLNNFSSNRRKPLHIDAQVYECISDIVWAVRRKDFTVSGVISRILVEHIKENAGMIKKITGRDYKLLQP | not soluble |
| MILKPIGVVKSPFKTQNDAPRQGRFSDAVSEIAIFDEYADGLHKIENLRHIIVLYWMDKASRDKLRVVPPGETEERGVFTTRSPSRPNPIGLCVVEILEVERNRLKVRWLDALDGSPVIDIKKYSPEIDCVNQLEGQQPLEHHHHHH | soluble |
| MAHHHHHHMRRSLVFPPCHLQEARLLQSQQLFGWYHQTRHFTSLVDRLSTGVARKLSSLTETHMMPLSEKHITEPRRPYPKRPSMQENLAERLAEQRRWRSRVVPQQIILSKDKLYIEFVWSAATLSAAAAREMRQQQNNEEENGDGCTQKRKGISCGSFANDGIIKSEKLMSHRTRFLAEFLRAYSPSTDVIGADALIYGRRGITITDVIPVGNYALRIVFSDGHSGGIYPYEYLFHLGQCKYTKMREYIRRLREKRKSRDPPKRVPSKYVPRGRNAAEGTPKRDKTDDCGHRVAAK | not soluble |
| LINILEQAKQKNTAQGSESTTNKIIGYTTTANVNVDNQNIFSVSKLNNEQFQRKIIVNATEETLDQSQTLQSNESIVLPMPGKYKSTDKNK | soluble |
| MVEQCPALKSRIKPMLSQKRLVYKPLGSFYQVLSAEAYTKHGLNVHGVVFDELHAQPNRDLYDVMLHGSGDARKQPLFFLITTAGTDRNSICWEVHQKAEDILQGRKIDPTFYPVIYSASDTDDWTSEKVWRKVNPSLGITVDIEKLRVACENAKQNPAEENLFRQLRLNQWVKQSVRWMPMDKWDKCAFPVDAEKLRGRTCYGGLDLSSTTDITAFVLVFPPLDESDKYQILTFFWIPEENIDQRVRRDHVPYDVWERQGFLYTTEGNVVHYGFIETFIEELGMKYNIKEIAFDRWGAIQMTQNLEALGFTVVPFGQGFKDMSPPTKELMKLTLEERIAHGGHPVLRWMMDNIYVKTDPAGNIKPDKEKSTERIDGAVALIMALDRALRHDGDERNGSIYDERGILFL | soluble |
| MGSDKIHHHHHHMARYTGPLCKLCRREGMKLYLKGERCYTDKCAFDRRPYAPGQHGQRRTKLTQYGIQLRAKQTVKRIYGILERQFERYVEKAMQKAGDTRENLIQILEARLDNVVYRMGFAINRRQARQLVNHGHFLVNGKKVNIPSYLLRPNDVVEVREKSRDLEVIKKAIEANKERSIVPWIEVDYDNYRGTFLRYPSLEEVTDLPVDLQTVIEFYSR | not soluble |
| MGSDKIHHHHHHMKLLDHKLSLLEITDEEKSDEIILNLSRNVKKDLEDIVVANVSMENVLVMNIKVPPTLNKQNAVEYATMEISRNLGILPEQLVVAPLDIRGGEGLFFVSKVDQVKSFVTDLMKKEFPETDVVIPDIVKYLEVFEFYFGKRLKGTSVLTVISFLSDYYSIVVLENNHYRSLRLLFSMFWDYMDIVVENTGIQPKELIEGTVNVDLSFLQPYFGDFLIELDREVKVSLDEVNLSRVNQFFYIVDPPIFSPVLSQSLEKFEGVALKQGIVPSFKPGISLGTLGLMIRGGREIGKVKHLSV | not soluble |
